Experimental findings from the supplement of paper PMC5998384 are described below.

Series [1] concerns HeLa Kyoto. In words: solubility in G1/S (NP-40 vs SDS abundance) (log2 ratio); higher = more soluble. As to conditions: cell cycle stage: G1/S.
The test system of series [2] is HeLa Kyoto. The series is described as follows: solubility change mitosis vs G1/S (difference of NP-40 vs SDS log2 ratios) (log2 ratio difference); higher = more soluble in mitosis.
In series [3] the test system is HeLa Kyoto. The series is described as follows: thermal stability score vs G1/S (z-score of summed log2 fold changes over temperatures); higher = more thermally stable than in G1/S.
The mark [4] stands for this setting: cell cycle stage: early G1 (4.5 h after nocodazole release).
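Wherever solubility change mitosis vs G1/S (difference of NP-40 vs SDS log2 ratios) is given: synchronized HeLa Kyoto cells (double thymidine block for G1/S, nocodazole release for mitosis), protein amounts in NP-40 versus SDS lysates quantified by mass spectrometry, three biological replicates.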
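Wherever solubility in G1/S (NP-40 vs SDS abundance) is given: HeLa Kyoto cells arrested at G1/S by double thymidine block, proteins quantified by TMT10plex mass spectrometry in mild NP-40 versus SDS extracts, three biological replicates.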
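Wherever thermal stability score vs G1/S (z-score of summed log2 fold changes over temperatures) is given: synchronized HeLa Kyoto cells, proteins quantified by TMT10plex mass spectrometry, three biological replicates, mitosis taken 0.5 h after nocodazole release, G1/S directly after double thymidine block.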

As to DISP1, the “solubility in G1/S (log2)” value in the series with HeLa Kyoto [1] is 0.0363. In the series with HeLa Kyoto [2], the “solubility change mitosis (log2)” value is -0.159. The thermal stability score in the series on HeLa Kyoto [3] (setting [4]) is -0.198; in the series with HeLa Kyoto [3] (cell cycle stage: mitosis) it was 0.756.

As for KIAA1671, the “solubility in G1/S (log2)” value with HeLa Kyoto [1] was -1.28. In addition, the “solubility change mitosis (log2)” value in the series on HeLa Kyoto [2] was 1.05. Also, the thermal stability score with HeLa Kyoto [3] (setting [4]) is -0.863; in the series with HeLa Kyoto [3] (cell cycle stage: mitosis) it was -1.71.

“MAQVSINNDYSEWDLSTDAGERARLLQSPCVDTAPKSEWEASPGGLDRGTTSTLGAIFIVVNACLGAGLLNFPAAFSTAGGVAAGIALQMGMLVFIISGLVILAYCSQASNERTYQEVVWAVCGKLTGVLCEVAIAVYTFGTCIAFLIIIGDQQDKIIAVMAKEPEGASGPWYTDRKFTISLTAFLFILPLSIPREIGFQKYASFLSVVGTWYVTAIVIIKYIWPDKEMTPGNILTRPASWMAVFNAMPTICFGFQCHVSSVPVFNSMQQPEVKTWGGVVTAAMVIALAVYMGTGICGFLTFGAAVDPDVLLSYPSEDMAVAVARAFIILSVLTSYPILHFCGRAVVEGLWLRYQGVPVEEDVGRERRRRVLQTLVWFLLTLLLALFIPDIGKVISVIGGLAACFIFVFPGLCLIQAKLSEMEEVKPASWWVLVSYGVLLVTLGAFIFGQTTANAIFVDLLA [SLC38A7]”: the “solubility in G1/S (log2)” value in the series with HeLa Kyoto [1] was -0.213. The “solubility change mitosis (log2)” value in the series with HeLa Kyoto [2] was -0.113. Further, the figures for the thermal stability score in the series on HeLa Kyoto [3] (setting [4]) and in the series with HeLa Kyoto [3] (cell cycle stage: mitosis) were -4.08 and -4.26, respectively.

Turning to “MESGGRPSLCQFILLGTTSVVTAALYSVYRQKARVSQELKGAKKVHLGEDLKSILSEAPGKCVPYAVIEGAVRSVKETLNSQFVENCKGVIQRLTLQEHKMVWNRTTHLWNDCSKIIHQRTNTVPFDLVPHEDGVDVAVRVLKPLDSVDLGLETVYEKFHPSIQSFTDVIGHYISGERPKGIQETEEMLKVGATLTGVGELVLDNNSVRLQPPKQGMQYYLSSQDFDSLLQRQESSVRLWKVLALVFGFATCATLFFILRKQYLQRQERLRLKQMQEEFQEHEAQLLSRAKPEDRESLKSACVVCLSSFKSCVFLECGHVCSCTECYRALPEPKKCPICRQAITRVIPLYNS [MUL1]”, the “solubility in G1/S (log2)” value in the series on HeLa Kyoto [1] came to 0.127. Further, the “solubility change mitosis (log2)” value in the series on HeLa Kyoto [2] was -0.00588. In addition, the thermal stability score in the series with HeLa Kyoto [3] (setting [4]) is -0.138; with HeLa Kyoto [3] (cell cycle stage: mitosis), 0.791.

Regarding “MAELDQLPDESSSAKALVSLKEGSLSNTWNEKYSSLQKTPVWKGRNTSSAVEMPFRNSKRSRLFSDEDDRQINTRSPKRNQRVAMVPQKFTATMSTPDKKASQKIGFRLRNLLKLPKAHKWCIYEWFYSNIDKPLFEGDNDFCVCLKESFPNLKTRKLTRVEWGKIRRLMGKPRRCSSAFFEEERSALKQKRQKIRLLQQRKVADVSQFKDLPDEIPLPLVIGTKVTARLRGVHDGLFTGQIDAVDTLNATYRVTFDRTGLGTHTIPDYEVLSNEPHETMPIAAFGQKQRPSRFFMTPPRLHYTPPLQSPIIDNDPLLGQSPWRSKISGSDTETLGGFPVEFLIQVTRLSKILMIKKEHIKKLREMNTEAEKLKSYSMPISIEFQRRYATIVLELEQLNKDLNKVLHKVQQYCYELAPDQGLQPADQPTDMRRRCEEEAQEIVRHANSSTGQPCVENENLTDLISRLTAILLQIKCLAEGGDLNSFEFKSLTDSLNDIKSTIDASNISCFQNNVEIHVAHIQSGLSQMGNLHAFAANNTNRD [LIN9]”, in the series with HeLa Kyoto [1], the “solubility in G1/S (log2)” value amounted to 0.183. Besides, the “solubility change mitosis (log2)” value in the series with HeLa Kyoto [2] is 0.143. The thermal stability score with HeLa Kyoto [3] (setting [4]) is 2.27; with HeLa Kyoto [3] (cell cycle stage: mitosis), 3.4.

Take BLM: the “solubility in G1/S (log2)” value in the series with HeLa Kyoto [1] was -0.848. In addition, the “solubility change mitosis (log2)” value in the series with HeLa Kyoto [2] was 0.632. Besides, the thermal stability score in the series on HeLa Kyoto [3] (setting [4]) was -0.277; in the series on HeLa Kyoto [3] (cell cycle stage: mitosis), -0.894.

For “MTVEQNVLQQSAAQKHQQTFLNQLREITGINDTQILQQALKDSNGNLELAVAFLTAKNAKTPQQEETTYYQTALPGNDRYISVGSQADTNVIDLTGDDKDDLQRAIALSLAESNRAFRETGITDEEQAISRVLEASIAENKACLKRTPTEVWRDSRNPYDRKRQDKAPVGLKNVGNTCWFSAVIQSLFNLLEFRRLVLNYKPPSNAQDLPRNQKEHRNLPFMRELRYLFALLVGTKRKYVDPSRAVEILKDAFKSNDSQQQDVSEFTHKLLDWLEDAFQMKAEEETDEEKPKNPMVELFYGRFLAVGVLEGKKFENTEMFGQYPLQVNGFKDLHECLEAAMIEGEIESLHSENSGKSGQEHWFTELPPVLTFELSRFEFNQALGRPEKIHNKLEFPQVLYLDRYMHRNREITRIKREEIKRLKDYLTVLQQRLERYLSYGSGPKRFPLVDVLQYALEFASSKPVCTSPVDDIDASSPPSGSIPSQTLPSTTEQQGALSSELPSTSPSSVAAISSRSVIHKPFTQSRIPPDLPMHPAPRHITEEELSVLESCLHRWRTEIENDTRDLQESISRIHRTIELMYSDKSMIQVPYRLHAVLVHEGQANAGHYWAYIFDHRESRWMKYNDIAVTKSSWEELVRDSFGGYRNASAYCLMYINDKAQFLIQEEFNKETGQPLVGIETLPPDLRDFVEEDNQRFEKELEEWDAQLAQKALQEKLLASQKLRESETSVTTAQAAGDPEYLEQPSRSDFSKHLKEETIQIITKASHEHEDKSPETVLQSAIKLEYARLVKLAQEDTPPETDYRLHHVVVYFIQNQAPKKIIEKTLLEQFGDRNLSFDERCHNIMKVAQAKLEMIKPEEVNLEEYEEWHQDYRKFRETTMYLIIGLENFQRESYIDSLLFLICAYQNNKELLSKGLYRGHDEELISHYRRECLLKLNEQAAELFESGEDREVNNGLIIMNEFIVPFLPLLLVDEMEEKDILAVEDMRNRWCSYLGQEMEPHLQEKLTDFLPKLLDCSMEIKSFHEPPKLPSYSTHELCERFARIMLSLSRTPADGR [USP25]”, the “solubility in G1/S (log2)” value with HeLa Kyoto [1] worked out at 0.123. For the same substance, in the series on HeLa Kyoto [2], the “solubility change mitosis (log2)” value was -0.00837. Also, the thermal stability score in the series with HeLa Kyoto [3] (setting [4]) is -0.404; with HeLa Kyoto [3] (cell cycle stage: mitosis) it was 0.0462.

For the substance “MPGPQGGRGAATMSLGKLSPVGWVSSSQGKRRLTADMISHPLGDFRHTMHVGRGGDVFGDTSFLSNHGGSSGSTHRSPRSFLAKKLQLVRRVGAPPRRMASPPAPSPAPPAISPIIKNAISLPQLNQAAYDSLVVGKLSFDSSPTSSTDGHSSYGLDSGFCTISRLPRSEKPHDRDRDGSFPSEPGLRRSDSLLSFRLDLDLGPSLLSELLGVMSLPEAPAAETPAPAANPPAPTANPTGPAANPPATTANPPAPAANPSAPAATPTGPAANPPAPAASSTPHGHCPNGVTAGLGPVAEVKSSPVGGGPRGPAGPALGRHWGAGWDGGHHYPEMDARQERVEVLPQARASWESLDEEWRAPQAGSRTPVPSTVQANTFEFADAEEDDEVKV [CDC42EP1]”, in the series with HeLa Kyoto [1], the “solubility in G1/S (log2)” value is 0.536. In addition, the “solubility change mitosis (log2)” value in the series with HeLa Kyoto [2] was 0.0734. Besides, the results for the thermal stability score in the series on HeLa Kyoto [3] (setting [4]) and in the series with HeLa Kyoto [3] (cell cycle stage: mitosis) were -0.817 and -1.35, respectively.

As to “MDGLRQRVEHFLEQRNLVTEVLGALEAKTGVEKRYLAAGAVTLLSLYLLFGYGASLLCNLIGFVYPAYASIKAIESPSKDDDTVWLTYWVVYALFGLAEFFSDLLLSWFPFYYVGKCAFLLFCMAPRPWNGALMLYQRVVRPLFLRHHGAVDRIMNDLSGRALDAAAGITRNVLQVLARSRAGITPVAVAGPSTPLEADLKPSQTPQPKDK [REEP6]”, in the series on HeLa Kyoto [1], the “solubility in G1/S (log2)” value was -0.206. In addition, the “solubility change mitosis (log2)” value in the series with HeLa Kyoto [2] was -0.143. Further, the thermal stability score with HeLa Kyoto [3] (setting [4]) is 0.664; with HeLa Kyoto [3] (cell cycle stage: mitosis), -0.943.
